Blank lines part the entries; values can stand above or below the sequence they belong to.
Assays:
HLA-B*35:01 = test: IEDB peptide-MHC binding, purified MHC/competitive/radioactivity; filed as Kd, often an IC50 or EC50 that approximates it; ≥ and ≤ were set here for values at or beyond the usual limits of such assays
HLA-B*15:01 = test: as above; conditions: source organism: Dengue virus 2 Jamaica/1409/1983
HLA-B*45:01 = test: as above
HLA-B*40:01 [1] = test: as above
HLA-B*40:02 = test: as above
HLA-B*44:03 = test: as above
HLA-B*18:01 = test: as above
HLA-B*44:02 = test: as above
HLA-B*51:01 = test: as above
HLA-A*24:03 = test: IEDB peptide-MHC binding, purified MHC/direct/fluorescence; filed as Kd, often an IC50 or EC50 that approximates it; ≥ and ≤ were set here for values at or beyond the usual limits of such assays
HLA-B*58:01 = test: as above
HLA-B*57:01 = test: as above; conditions: source organism: Amur virus
HLA-B*40:01 [2] = test: as above; conditions: source organism: Shewanella violacea
HLA-A*02:01 = test: as above; conditions: source organism: Shewanella violacea
HLA-A*31:01 = test: as above; conditions: source organism: Shewanella violacea
HLA-B*08:01 = test: as above
HLA-B*07:02 = test: as above; conditions: source organism: Shewanella violacea
HLA-A*03:01 = test: as above; conditions: source organism: Shewanella violacea
HLA-A*01:01 = test: as above; conditions: source organism: Shewanella violacea
HLA-B*27:05 = test: as above; conditions: source organism: Shewanella violacea
HLA-A*26:01 = test: as above; conditions: source organism: Haemophilus influenzae
HLA-A*69:01 = test: as above; conditions: source organism: Shewanella violacea
HLA-A*11:01 = test: as above; conditions: source organism: Shewanella violacea
HLA-B*39:01 = test: IEDB peptide-MHC binding, purified MHC/competitive/fluorescence; filed as Kd, often an IC50 or EC50 that approximates it; ≥ and ≤ were set here for values at or beyond the usual limits of such assays; conditions: source organism: Bacillus anthracis str. A0488
[3] = source organism: Dengue virus 2 Jamaica/1409/1983
[4] = source organism: Mammarenavirus whitewaterense
[5] = source organism: Dengue virus 1 Brazil/97-11/1997
[6] = source organism: SARS coronavirus Tor2
[7] = source organism: Mammarenavirus guanaritoense

Sequence: LMCHATFTM
Kd (HLA-B*35:01; [3]): 1600 nM
Kd (HLA-B*15:01): 9.45 nM

Sequence: SDSVCACGL
Kd (HLA-B*45:01; [4]): 10600 nM
Kd (HLA-B*40:01 [1]; [4]): ≥ 44000 nM
Kd (HLA-B*40:02; [4]): 3880 nM
Kd (HLA-B*44:03; [4]): 2830 nM
Kd (HLA-B*18:01; [4]): ≥ 77.5 µM
Kd (HLA-B*44:02; [4]): 3090 nM

Sequence: MVQADSGCVI
Kd (HLA-B*51:01; [5]): ≥ 63.9 µM

Sequence: TYGVCSKAF
Kd (HLA-A*24:03; source organism: West Nile virus): 24.5 nM

Sequence: NELTLIDFYL
Kd (HLA-B*45:01; [6]): 1080 nM
Kd (HLA-B*40:01 [1]; [6]): 231 nM
Kd (HLA-B*40:02; [6]): 126 nM
Kd (HLA-B*44:03; [6]): 51 nM
Kd (HLA-B*18:01; [6]): 0.604 µM
Kd (HLA-B*44:02; [6]): 157 nM

Sequence: GEILLLEWL
Kd (HLA-B*45:01; [6]): 843 nM
Kd (HLA-B*40:01 [1]; [6]): 0.363 nM
Kd (HLA-B*40:02; [6]): 19500 nM
Kd (HLA-B*44:03; [6]): 1.51 nM
Kd (HLA-B*18:01; [6]): 4.96 µM
Kd (HLA-B*44:02; [6]): 9.44 nM

Sequence: GECPKFVFPL
Kd (HLA-B*45:01; [6]): 3600 nM
Kd (HLA-B*40:01 [1]; [6]): 2.73 nM
Kd (HLA-B*40:02; [6]): 1.28 nM
Kd (HLA-B*44:03; [6]): 671 nM
Kd (HLA-B*18:01; [6]): ≥ 70.5 µM
Kd (HLA-B*44:02; [6]): 952 nM

Sequence: FGIFTTNIWL
Kd (HLA-B*51:01; [5]): ≥ 20.6 µM

Sequence: QELGKYEQYI
Kd (HLA-B*45:01; [6]): ≥ 20600 nM
Kd (HLA-B*40:01 [1]; [6]): 13000 nM
Kd (HLA-B*40:02; [6]): 507 nM
Kd (HLA-B*44:03; [6]): 187 nM
Kd (HLA-B*18:01; [6]): ≥ 70.5 µM
Kd (HLA-B*44:02; [6]): 207 nM

Sequence: VSLTECPTF
Kd (HLA-B*58:01; source organism: Amur virus): 34.8 nM
Kd (HLA-B*57:01): 474 nM

Sequence: FEEALNVALA
Kd (HLA-B*45:01; [7]): 89.3 nM
Kd (HLA-B*40:01 [1]; [7]): 5560 nM
Kd (HLA-B*40:02; [7]): 279 nM
Kd (HLA-B*44:03; [7]): ≥ 70100 nM
Kd (HLA-B*18:01; [7]): 0.0991 µM
Kd (HLA-B*44:02; [7]): ≥ 70200 nM

Kd (HLA-A*24:03; source organism: Escherichia coli O157:H7): 3.5 nM
Sequence: RTLNELWFL

Kd (HLA-B*40:01 [2]): ≥ 20 µM
Kd (HLA-A*02:01): ≥ 20 µM
Kd (HLA-A*31:01): ≥ 20 µM
Kd (HLA-B*08:01; source organism: Haemophilus influenzae): 7.47 µM
Kd (HLA-B*07:02): ≥ 20 µM
Kd (HLA-A*03:01): ≥ 20 µM
Kd (HLA-A*01:01): ≥ 20 µM
Kd (HLA-B*58:01; source organism: Shewanella violacea): ≥ 20000 nM
Kd (HLA-B*27:05): ≥ 20 µM
Kd (HLA-A*26:01): 7.12 µM
Kd (HLA-A*69:01): ≥ 20 µM
Kd (HLA-A*11:01): ≥ 20 µM
Sequence: ETKGKRRLL

Sequence: DEWSVATFY
Kd (HLA-B*45:01; [6]): ≥ 77800 nM
Kd (HLA-B*40:01 [1]; [6]): ≥ 76200 nM
Kd (HLA-B*40:02; [6]): ≥ 77300 nM
Kd (HLA-B*44:03; [6]): 10.4 nM
Kd (HLA-B*18:01; [6]): 0.00282 µM
Kd (HLA-B*44:02; [6]): 316 nM

Sequence: SAFFGMSRIG
Kd (HLA-B*45:01; [6]): ≥ 26400 nM
Kd (HLA-B*40:01 [1]; [6]): ≥ 44900 nM
Kd (HLA-B*40:02; [6]): ≥ 70800 nM
Kd (HLA-B*44:03; [6]): 8770 nM
Kd (HLA-B*18:01; [6]): ≥ 70.5 µM
Kd (HLA-B*44:02; [6]): 18400 nM

Sequence: TPPGSVEAF
Kd (HLA-B*35:01; [5]): 699 nM

Sequence: WPISKMDLGV
Kd (HLA-B*51:01; [5]): 3.16 µM

Sequence: LPLPWLPGA
Kd (HLA-B*51:01; [3]): 0.651 µM

Sequence: YLKPKIWRF
Kd (HLA-B*08:01; source organism: Campylobacter jejuni subsp. jejuni 81-176): 0.008 µM

Sequence: REIGFIVPGL
Kd (HLA-B*45:01; [6]): 103 nM
Kd (HLA-B*40:01 [1]; [6]): 0.132 nM
Kd (HLA-B*40:02; [6]): 0.408 nM
Kd (HLA-B*44:03; [6]): 4.29 nM
Kd (HLA-B*18:01; [6]): 8.67 µM
Kd (HLA-B*44:02; [6]): 14.3 nM

Sequence: YHHTAINVL
Kd (HLA-B*39:01): 6.3 nM

Sequence: REPETTVVL
Kd (HLA-B*45:01; [4]): ≥ 74800 nM
Kd (HLA-B*40:01 [1]; [4]): 112 nM
Kd (HLA-B*40:02; [4]): 92.7 nM
Kd (HLA-B*44:03; [4]): ≥ 44300 nM
Kd (HLA-B*18:01; [4]): 7.9 µM
Kd (HLA-B*44:02; [4]): 18600 nM

Sequence: LAFITFLRV
Kd (HLA-B*51:01; source organism: Dengue virus 4 Philippines/H241/1956): 4.24 µM

Sequence: IEELFYSYAT
Kd (HLA-B*45:01; [6]): 10.6 nM
Kd (HLA-B*40:01 [1]; [6]): 1520 nM
Kd (HLA-B*40:02; [6]): 51.9 nM
Kd (HLA-B*44:03; [6]): 205 nM
Kd (HLA-B*18:01; [6]): 0.786 µM
Kd (HLA-B*44:02; [6]): 326 nM
